Laboratory results taken from US20250319163A1, “TREATMENT OF TYPE 2 DIABETES MELLITUS” (SANOFI, priority 2019, published 2025).

How the values were obtained:
[1] = system: Japanese patients with type 2 diabetes mellitus inadequately controlled on oral antidiabetic drugs; test: EFC14114: mean change in HbA1c from baseline to Week 26; assay type: in vivo, human; details: on-treatment period, mITT population
[2] = system: Japanese patients with type 2 diabetes mellitus inadequately controlled on oral antidiabetic drugs; test: EFC14114: documented symptomatic hypoglycemia; assay type: in vivo, human; details: plasma glucose ≤70 mg/dL [[…]], on-treatment period; for Documented symptomatic hypoglycemia: patients with events, %: Safety population
[3] = system: Japanese patients with type 2 diabetes mellitus inadequately controlled on oral antidiabetic drugs; test: EFC14114: mean change in fasting plasma glucose from baseline to Week 26; assay type: in vivo, human; details: mITT population, MMRM
[4] = system: Japanese patients with type 2 diabetes mellitus inadequately controlled on oral antidiabetic drugs; test: EFC14114: mean change in 2-hour postprandial plasma glucose during a standardized meal test; assay type: in vivo, human; details: mITT population, ANCOVA, LOCF
[5] = system: Japanese patients with type 2 diabetes mellitus inadequately controlled on oral antidiabetic drugs; test: EFC14114: treatment-emergent adverse events; details: Safety population; for Patients with any TEAE, %: overview of adverse event profile
[6] = SGLT2 inhibitor use at screening: No
[7] = SGLT2 inhibitor use at screening: Yes

Question: Which “Mean change in HbA1c from baseline to Week 26, LSMean (SE)” value [1, 6] does the source give for “Gly(A21)-Arg(B31)-Arg(B32) human insulin [Insulin Glargine]” here?
Answer: Its value is −0.83 (0.047) %.

Question: And the “Mean change in HbA1c from baseline to Week 26, LSMean (SE)” value [1, 7]?
Answer: Its value is −0.49 (0.091) %.

Question: What about the “Documented symptomatic hypoglycemia: Number of events” value [2, 6] of the same substance?
Answer: Its value is 62.

Question: And the “Documented symptomatic hypoglycemia: Number of events per patient year” value [2, 6]?
Answer: The value was 0.61.

Question: What about the “Documented symptomatic hypoglycemia: Number of patients with events per patient year” value [2, 6] of the same substance?
Answer: The value was 0.28.

Question: What about the “Documented symptomatic hypoglycemia: patients with events, %” value [2, 6] of the same substance?
Answer: Its value is 14.1%.

Question: And the “Documented symptomatic hypoglycemia: Number of events” value [2, 7]?
Answer: Its value is 8.

Question: And the “Documented symptomatic hypoglycemia: Number of events per patient year” value [2, 7]?
Answer: Its value is 0.29.

Question: And the “Documented symptomatic hypoglycemia: Number of patients with events per patient year” value [2, 7]?
Answer: The value was 0.11.

Question: And the “Documented symptomatic hypoglycemia: patients with events, %” value [2, 7]?
Answer: The value was 5.4%.

Question: What about the “Mean change in fasting plasma glucose from baseline to Week 26, LSMean (SE)” value [3, 6] of the same substance?
Answer: The value was −1.46 (0.104) mmol/L.

Question: What about the “Mean change in fasting plasma glucose from baseline to Week 26, LSMean (SE)” value [3, 7] of the same substance?
Answer: Its value is −1.01 (0.205) mmol/L.

Question: What about the “Mean change in 2-hour postprandial plasma glucose during a standardized meal test from baseline to Week 26, LSMean (SE)” value [4, 6] of the same substance?
Answer: Its value is −1.29 (0.185) mmol/L.

Question: What about the “Mean change in 2-hour postprandial plasma glucose during a standardized meal test from baseline to Week 26, LSMean (SE)” value [4, 7] of the same substance?
Answer: The value was −1.38 (0.363) mmol/L.

Question: What about the “Patients with TEAE: Any class, %” value [5, 6] of the same substance?
Answer: Its value is “(63.4%)”.

Question: What about the “Patients with TEAE: Back pain (PT), %” value [5, 6] of the same substance?
Answer: Its value is “(2.9%)”.

Question: And the “Patients with TEAE: Constipation (PT), %” value [5, 6]?
Answer: The value was “(1.5%)”.

Question: What about the “Patients with TEAE: Dental caries (PT), %” value [5, 6] of the same substance?
Answer: The value was “(2.4%)”.

Question: And the “Patients with TEAE: Diarrhoea (PT), %” value [5, 6]?
Answer: The value was “(2.9%)”.

Question: What about the “Patients with TEAE: Dizziness (PT), %” value [5, 6] of the same substance?
Answer: The value was “(3.4%)”.

Question: And the “Patients with TEAE: Dyspepsia (PT), %” value [5, 6]?
Answer: Its value is “(0.5%)”.

Question: What about the “Patients with TEAE: Fatigue (PT), %” value [5, 6] of the same substance?
Answer: The value was “(2.0%)”.

Question: What about the “Patients with TEAE: Gastrointestinal disorders (SOC), %” value [5, 6] of the same substance?
Answer: Its value is “(15.6%)”.

Question: And the “Patients with TEAE: General disorders and administration site conditions (SOC), %” value [5, 6]?
Answer: The value was “(7.3%)”.

Question: What about the “Patients with TEAE: Headache (PT), %” value [5, 6] of the same substance?
Answer: The value was “(2.0%)”.

Question: And the “Patients with TEAE: Hyperhidrosis (PT), %” value [5, 6]?
Answer: The value was “(2.9%)”.

Question: And the “Patients with TEAE: Infections and infestations (SOC), %” value [5, 6]?
Answer: The value was “(35.6%)”.

Question: And the “Patients with TEAE: Influenza (PT), %” value [5, 6]?
Answer: Its value is “(1.5%)”.

Question: What about the “Patients with TEAE: Metabolism and nutrition disorders (SOC), %” value [5, 6] of the same substance?
Answer: The value was “(2.9%)”.

Question: What about the “Patients with TEAE: Musculoskeletal and connective tissue disorders (SOC), %” value [5, 6] of the same substance?
Answer: The value was “(12.2%)”.

Question: And the “Patients with TEAE: Nasopharyngitis (PT), %” value [5, 6]?
Answer: The value was “(25.4%)”.

Question: What about the “Patients with TEAE: Nausea (PT), %” value [5, 6] of the same substance?
Answer: The value was “(1.5%)”.

Question: What about the “Patients with TEAE: Nervous system disorders (SOC), %” value [5, 6] of the same substance?
Answer: The value was “(9.3%)”.

Question: What about the “Patients with TEAE: Pharyngitis (PT), %” value [5, 6] of the same substance?
Answer: The value was “(1.0%)”.

Question: And the “Patients with TEAE: Skin and subcutaneous tissue disorders (SOC), %” value [5, 6]?
Answer: The value was “(9.8%)”.

Question: And the “Patients with any TEAE leading to permanent treatment discontinuation, %” value [5, 6]?
Answer: Its value is 0.5%.

Question: And the “Patients with any serious TEAE, %” value [5, 6]?
Answer: The value was 3.4%.

Question: And the “Patients with TEAE: Any class, %” value [5, 7]?
Answer: Its value is “(64.3%)”.

Question: And the “Patients with TEAE: Back pain (PT), %” value [5, 7]?
Answer: Its value is “(5.4%)”.

Question: What about the “Patients with TEAE: Dental caries (PT), %” value [5, 7] of the same substance?
Answer: Its value is “(1.8%)”.

Question: What about the “Patients with TEAE: Gastrointestinal disorders (SOC), %” value [5, 7] of the same substance?
Answer: The value was “(12.5%)”.

Question: What about the “Patients with TEAE: General disorders and administration site conditions (SOC), %” value [5, 7] of the same substance?
Answer: Its value is “(5.4%)”.

Question: What about the “Patients with TEAE: Headache (PT), %” value [5, 7] of the same substance?
Answer: Its value is “(5.4%)”.

Question: What about the “Patients with TEAE: Hyperhidrosis (PT), %” value [5, 7] of the same substance?
Answer: The value was “(1.8%)”.

Question: What about the “Patients with TEAE: Infections and infestations (SOC), %” value [5, 7] of the same substance?
Answer: Its value is “(33.9%)”.

Question: What about the “Patients with TEAE: Influenza (PT), %” value [5, 7] of the same substance?
Answer: Its value is “(1.8%)”.

Question: And the “Patients with TEAE: Metabolism and nutrition disorders (SOC), %” value [5, 7]?
Answer: The value was “(1.8%)”.

Question: And the “Patients with TEAE: Musculoskeletal and connective tissue disorders (SOC), %” value [5, 7]?
Answer: Its value is “(12.5%)”.

Question: What about the “Patients with TEAE: Nasopharyngitis (PT), %” value [5, 7] of the same substance?
Answer: The value was “(17.9%)”.

Question: What about the “Patients with TEAE: Nausea (PT), %” value [5, 7] of the same substance?
Answer: The value was “(3.6%)”.

Question: And the “Patients with TEAE: Nervous system disorders (SOC), %” value [5, 7]?
Answer: The value was “(10.7%)”.

Question: What about the “Patients with TEAE: Pharyngitis (PT), %” value [5, 7] of the same substance?
Answer: Its value is “(5.4%)”.

Question: And the “Patients with TEAE: Skin and subcutaneous tissue disorders (SOC), %” value [5, 7]?
Answer: Its value is “(8.9%)”.

Question: And the “Patients with any TEAE leading to permanent treatment discontinuation, %” value [5, 7]?
Answer: The value was 1.8%.

Question: What about the “Patients with any serious TEAE, %” value [5, 7] of the same substance?
Answer: The value was 1.8%.

Question: What about the “Patients with any TEAE, %” value [5, 6] of the same substance?
Answer: The value was 63.4%.

Question: What about the “Patients with any TEAE, %” value [5, 7] of the same substance?
Answer: Its value is 64.3%.
